Results published in CN110357960A (GUANGZHOU AISIMAI BIOMEDICAL TECH CO LTD, dated 2019).

Target: 肿瘤细胞SKBR3表面的Her2抗原 (UniProt P04626 23-1255, limits assumed)
Experiment: cell-based or functional assay

| 对SKBR3细胞的杀伤 EC50浓度 (CTL, LDH release, PBMC effector cells) | Binder |
| --- | --- |
| 0.045 ng/mL | 抗Her2×抗CD3双特异性抗体MutC (bispecific antibody, human IgG1, kappa) heavy 1: EVQLVESGGGLVQPGGSLRLSCAASGFTFNTYAMNWVRQAPGKGLEWVARIRSKYNNYATYYADSVKDRFTISRDDSKNSLYLQMNSLKTEDTAVYYCARHGNFGNSYVSWFAYWGQGTLVTVSSISSASTKGPSVFPLAPSSKSTSGGTAALGCLVKDYFPEPVTVSWNSGALTSGVHTFPAVLQSSGLYSLSSVVTVPSSSLGTQTYICNVNHKPSNTKVDKKVEPKSCDKTHTCPPCPAPELLGGPSVFLFPPKPKDTLMISRTPEVTCVVVDVSHEDPEVKFNWYVDGVEVHNAKTKPREEQYNSTYRVVSVLTVLHQDWLNGKEYKCKVSNKALPAPIEKTISKAKGQPREPQVYTLPPSREEMTKNQVSLTCLVKGFYPSDIAVEWESNGQPENNYKTTKKKLDSDGSFFLYSKLTVDKSRWQQGNVFSCSVMHEALHNHYTQKSLSLSPGK light 1: QTVVTQEPSLTVSPGGTVTLTCGSSTGAVTTSNYANWVQEKPGQAPRGLIGGTNKRAPWTPARFSGSLLGGKAALTITGAQAEDEADYYCALWYSNLWVFGGGTKLTVLGKLVTMEIKRTVAAPSVFIFPPSDEQLKSGTASVVCLLNNFYPREAKVQWKVDNALQSGNSQESVTEQDSKDSTYSLSSTLTLSKADYEKHKVYTCEVTHQGLSSPVTKSFNRGEC heavy 2: not shown light 2: DIQMTQSPSSLSASVGDRVTITCRASQDVNTAVAWYQQKPGKAPKLLIYSASFLYSGVPSRFSGSRSGTDFTLTISSLQPEDFATYYCQQHYTTPPTFGQGTKLVTMEIKRTVAAPSVFICPPSDEQLKSGTASVVCLLNNFYPREAKVQWKVDNALQSGNSQESVTEQDSKDSTYSLSSTLTLSKADYEKHKVYTCEVTHQGLSSPVTKSFNRGES |
| 0.055 ng/mL | 抗Her2×抗CD3双特异性抗体MutC+ER (bispecific antibody) chain 1: EVQLVESGGGLVQPGGSLRLSCAASGFTFNTYAMNWVRQAPGKGLEWVARIRSKYNNYATYYADSVKDRFTISRDDSKNSLYLQMNSLKTEDTAVYYCARHGNFGNSYVSWFAYWGQGTLVTVSSISSASTKGPSVFPLAPSSKSTSGGTAALGCLVKDYFPEPVTVSWNSGALTSGVHTFPAVLQSSGLYSLSSVVTVPSSSLGTQTYICNVNHKPSNTKVDKKVEPESCDKTHTCPPCPAPELLGGPSVFLFPPKPKDTLMISRTPEVTCVVVDVSHEDPEVKFNWYVDGVEVHNAKTKPREEQYNSTYRVVSVLTVLHQDWLNGKEYKCKVSNKALPAPIEKTISKAKGQPREPQVYTLPPSREEMTKNQVSLTCLVKGFYPSDIAVEWESNGQPENNYKTTKKKLDSDGSFFLYSKLTVDKSRWQQGNVFSCSVMHEALHNHYTQKSLSLSPGK chain 2: QTVVTQEPSLTVSPGGTVTLTCGSSTGAVTTSNYANWVQEKPGQAPRGLIGGTNKRAPWTPARFSGSLLGGKAALTITGAQAEDEADYYCALWYSNLWVFGGGTKLTVLGKLVTMEIKRTVAAPSVFIFPPSDEQLKSGTASVVCLLNNFYPREAKVQWKVDNALQSGNSQESVTEQDSKDSTYSLSSTLTLSKADYEKHKVYTCEVTHQGLSSPVTKSFNRGRC chain 3: not shown chain 4: DIQMTQSPSSLSASVGDRVTITCRASQDVNTAVAWYQQKPGKAPKLLIYSASFLYSGVPSRFSGSRSGTDFTLTISSLQPEDFATYYCQQHYTTPPTFGQGTKLVTMEIKRTVAAPSVFICPPSDEQLKSGTASVVCLLNNFYPREAKVQWKVDNALQSGNSQESVTEQDSKDSTYSLSSTLTLSKADYEKHKVYTCEVTHQGLSSPVTKSFNRGES |
| 0.034 ng/mL | 抗Her2×抗CD3双特异性抗体MutC-ER (bispecific antibody, human IgG1, kappa) heavy 1: EVQLVESGGGLVQPGGSLRLSCAASGFTFNTYAMNWVRQAPGKGLEWVARIRSKYNNYATYYADSVKDRFTISRDDSKNSLYLQMNSLKTEDTAVYYCARHGNFGNSYVSWFAYWGQGTLVTVSSISSASTKGPSVFPLAPSSKSTSGGTAALGCLVKDYFPEPVTVSWNSGALTSGVHTFPAVLQSSGLYSLSSVVTVPSSSLGTQTYICNVNHKPSNTKVDKKVEPKSCDKTHTCPPCPAPELLGGPSVFLFPPKPKDTLMISRTPEVTCVVVDVSHEDPEVKFNWYVDGVEVHNAKTKPREEQYNSTYRVVSVLTVLHQDWLNGKEYKCKVSNKALPAPIEKTISKAKGQPREPQVYTLPPSREEMTKNQVSLTCLVKGFYPSDIAVEWESNGQPENNYKTTKKKLDSDGSFFLYSKLTVDKSRWQQGNVFSCSVMHEALHNHYTQKSLSLSPGK light 1: QTVVTQEPSLTVSPGGTVTLTCGSSTGAVTTSNYANWVQEKPGQAPRGLIGGTNKRAPWTPARFSGSLLGGKAALTITGAQAEDEADYYCALWYSNLWVFGGGTKLTVLGKLVTMEIKRTVAAPSVFIFPPSDEQLKSGTASVVCLLNNFYPREAKVQWKVDNALQSGNSQESVTEQDSKDSTYSLSSTLTLSKADYEKHKVYTCEVTHQGLSSPVTKSFNRGEC heavy 2: not shown light 2: DIQMTQSPSSLSASVGDRVTITCRASQDVNTAVAWYQQKPGKAPKLLIYSASFLYSGVPSRFSGSRSGTDFTLTISSLQPEDFATYYCQQHYTTPPTFGQGTKLVTMEIKRTVAAPSVFICPPSDEQLKSGTASVVCLLNNFYPREAKVQWKVDNALQSGNSQESVTEQDSKDSTYSLSSTLTLSKADYEKHKVYTCEVTHQGLSSPVTKSFNRGRS |
